Reference: PMC9482650, “Quantitative fragmentomics allow affinity mapping of interactomes” (Nature Communications, 2022)

T1: DVL3, Q92997
T1 sequence (Q92997 244-331, limits assumed, looked up): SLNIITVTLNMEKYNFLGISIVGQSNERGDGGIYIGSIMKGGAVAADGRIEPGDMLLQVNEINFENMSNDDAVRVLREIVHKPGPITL

T2: ARHGEF11, O15085
T2 sequence (O15085 42-136, limits assumed, looked up): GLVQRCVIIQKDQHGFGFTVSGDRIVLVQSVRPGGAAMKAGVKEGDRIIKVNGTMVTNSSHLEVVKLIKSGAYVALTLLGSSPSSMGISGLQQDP

T3: RAPGEF6, Q8TEU7
T3 sequence (Q8TEU7 525-625, limits assumed, looked up): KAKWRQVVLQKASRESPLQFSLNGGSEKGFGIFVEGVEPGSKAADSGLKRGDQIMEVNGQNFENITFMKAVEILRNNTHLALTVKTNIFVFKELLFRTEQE

T4: APBA3_1, O96018
T4 sequence (O96018 389-490, limits assumed, looked up): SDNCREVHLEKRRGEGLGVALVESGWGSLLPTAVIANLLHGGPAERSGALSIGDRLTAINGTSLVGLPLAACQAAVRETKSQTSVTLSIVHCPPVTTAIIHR

T5: APBA2_1, Q99767
T5 sequence (Q99767 563-664, limits assumed, looked up): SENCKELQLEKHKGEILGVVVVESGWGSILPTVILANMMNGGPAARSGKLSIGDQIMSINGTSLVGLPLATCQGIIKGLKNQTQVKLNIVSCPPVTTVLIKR

T6: MPP6, Q9NZW5
T6 sequence (Q9NZW5 125-219, limits assumed, looked up): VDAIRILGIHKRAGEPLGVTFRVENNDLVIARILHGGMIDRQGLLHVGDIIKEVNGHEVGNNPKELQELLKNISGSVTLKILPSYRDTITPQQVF

T7: SNTA1, Q13424
T7 sequence (Q13424 82-180, limits assumed, looked up): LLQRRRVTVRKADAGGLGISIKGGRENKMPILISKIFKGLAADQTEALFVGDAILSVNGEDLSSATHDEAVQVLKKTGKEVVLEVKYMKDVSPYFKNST

T8: PTPN13_1, Q12923
T8 sequence (Q12923 1088-1188, limits assumed, looked up): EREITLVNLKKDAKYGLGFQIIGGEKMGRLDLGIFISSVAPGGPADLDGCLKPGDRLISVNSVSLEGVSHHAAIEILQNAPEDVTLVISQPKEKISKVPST

T9: LRRC7, Q96NW7
T9 sequence (Q96NW7 1440-1537, limits assumed, looked up): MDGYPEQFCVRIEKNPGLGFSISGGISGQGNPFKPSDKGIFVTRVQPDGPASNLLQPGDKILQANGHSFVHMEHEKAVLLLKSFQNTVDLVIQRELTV

T10: DLG3_1, Q92796
T10 sequence (Q92796 125-227, limits assumed, looked up): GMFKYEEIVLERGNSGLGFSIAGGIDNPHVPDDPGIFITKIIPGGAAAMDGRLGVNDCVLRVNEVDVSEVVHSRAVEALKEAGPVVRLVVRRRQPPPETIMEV

T11: PDZD2_2, O15018
T11 sequence (O15018 329-429, limits assumed, looked up): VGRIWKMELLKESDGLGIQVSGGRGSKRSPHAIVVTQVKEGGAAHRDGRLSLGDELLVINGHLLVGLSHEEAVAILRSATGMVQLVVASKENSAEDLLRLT

T12: SNTB1, Q13884
T12 sequence (Q13884 107-205, limits assumed, looked up): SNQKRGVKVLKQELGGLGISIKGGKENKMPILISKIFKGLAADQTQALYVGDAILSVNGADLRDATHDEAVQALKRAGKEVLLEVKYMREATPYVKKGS

T13: MPP7, Q5T2T1
T13 sequence (Q5T2T1 134-230, limits assumed, looked up): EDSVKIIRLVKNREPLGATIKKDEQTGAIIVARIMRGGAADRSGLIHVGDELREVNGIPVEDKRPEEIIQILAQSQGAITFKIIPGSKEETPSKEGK

B1: RCN1, Q15293 (peptide)
chain: EDLTKNHDEL
B2: CFTR, P13569 (peptide)
chain: TEEEVQDTRL
B3: PTEN, P60484 (peptide)
chain: DEDQHTQITKV

Target: T1, DVL3, Q92997
Assay: holdup assay
Set-up: key: below the threshold = too weak to quantify, mostly under pKd 3.1 to 4
Details: plain residues with an end cap or a label only (N-terminal biotin on a linker: ado-ado)

pKd | Binder
below the threshold | B1

Same assay, conditions: plain residues with an end cap or a label only (N-terminal biotin on a linker: ttds)

pKd | Binder
below the threshold | B2
below the threshold | B3

Target: HTRA2, O43464
Sequence (O43464 355-458): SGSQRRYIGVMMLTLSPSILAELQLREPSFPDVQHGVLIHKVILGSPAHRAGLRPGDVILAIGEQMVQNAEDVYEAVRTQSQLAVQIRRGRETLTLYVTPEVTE
Assay: holdup assay
Set-up: key: below the threshold = too weak to quantify, mostly under pKd 3.1 to 4
Details: plain residues with an end cap or a label only (N-terminal biotin on a linker: ado-ado)

pKd | Binder
below the threshold | B1

Same assay, conditions: plain residues with an end cap or a label only (N-terminal biotin on a linker: ttds)

pKd | Binder
below the threshold | B2
below the threshold | B3

Target: AHNAK1, Q09666
Sequence (Q09666 4-100): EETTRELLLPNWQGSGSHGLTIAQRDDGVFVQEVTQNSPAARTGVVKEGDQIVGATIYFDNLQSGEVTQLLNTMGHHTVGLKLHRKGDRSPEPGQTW
Assay: holdup assay
Set-up: key: below the threshold = too weak to quantify, mostly under pKd 3.1 to 4
Details: plain residues with an end cap or a label only (N-terminal biotin on a linker: ado-ado)

pKd | Binder
below the threshold | B1

Same assay, conditions: plain residues with an end cap or a label only (N-terminal biotin on a linker: ttds)

pKd | Binder
below the threshold | B2
below the threshold | B3

Target: DLG5_1, Q8TDM6
Sequence (Q8TDM6 617-713): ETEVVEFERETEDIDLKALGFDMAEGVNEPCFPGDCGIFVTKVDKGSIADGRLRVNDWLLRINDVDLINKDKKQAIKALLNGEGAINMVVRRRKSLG
Assay: holdup assay
Set-up: key: below the threshold = too weak to quantify, mostly under pKd 3.1 to 4
Details: plain residues with an end cap or a label only (N-terminal biotin on a linker: ado-ado)

pKd | Binder
3.49 | B1

Same assay, conditions: plain residues with an end cap or a label only (N-terminal biotin on a linker: ttds)

pKd | Binder
below the threshold | B2
below the threshold | B3

Target: T2, ARHGEF11, O15085
Assay: holdup assay
Set-up: key: below the threshold = too weak to quantify, mostly under pKd 3.1 to 4
Details: plain residues with an end cap or a label only (N-terminal biotin on a linker: ado-ado)

pKd | Binder
3.79 | B1

Same assay, conditions: plain residues with an end cap or a label only (N-terminal biotin on a linker: ttds)

pKd | Binder
below the threshold | B2
4.33 | B3

Target: MAGI2_6, Q86UL8
Sequence (Q86UL8 1141-1229): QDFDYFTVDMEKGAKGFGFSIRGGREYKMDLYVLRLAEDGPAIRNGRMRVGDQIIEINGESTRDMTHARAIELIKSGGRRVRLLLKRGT
Assay: holdup assay
Set-up: key: below the threshold = too weak to quantify, mostly under pKd 3.1 to 4
Details: plain residues with an end cap or a label only (N-terminal biotin on a linker: ado-ado)

pKd | Binder
3.54 | B1

Same assay, conditions: plain residues with an end cap or a label only (N-terminal biotin on a linker: ttds)

pKd | Binder
below the threshold | B2
4.07 | B3

Target: T3, RAPGEF6, Q8TEU7
Assay: holdup assay
Set-up: key: below the threshold = too weak to quantify, mostly under pKd 3.1 to 4
Details: plain residues with an end cap or a label only (N-terminal biotin on a linker: ado-ado)

pKd | Binder
below the threshold | B1

Same assay, conditions: plain residues with an end cap or a label only (N-terminal biotin on a linker: ttds)

pKd | Binder
below the threshold | B2
below the threshold | B3

Target: T4, APBA3_1, O96018
Assay: holdup assay
Set-up: key: below the threshold = too weak to quantify, mostly under pKd 3.1 to 4
Details: plain residues with an end cap or a label only (N-terminal biotin on a linker: ado-ado)

pKd | Binder
below the threshold | B1

Same assay, conditions: plain residues with an end cap or a label only (N-terminal biotin on a linker: ttds)

pKd | Binder
below the threshold | B2
below the threshold | B3

Target: SNX27, Q96L92
Assay: holdup assay
Set-up: key: below the threshold = too weak to quantify, mostly under pKd 3.1 to 4
Details: plain residues with an end cap or a label only (N-terminal biotin on a linker: ado-ado)

pKd | Binder
4 | B1

Same assay, conditions: plain residues with an end cap or a label only (N-terminal biotin on a linker: ttds)

pKd | Binder
5.56 | B2
4.89 | B3

Target: T5, APBA2_1, Q99767
Assay: holdup assay
Set-up: key: below the threshold = too weak to quantify, mostly under pKd 3.1 to 4
Details: plain residues with an end cap or a label only (N-terminal biotin on a linker: ado-ado)

pKd | Binder
3.49 | B1

Same assay, conditions: plain residues with an end cap or a label only (N-terminal biotin on a linker: ttds)

pKd | Binder
below the threshold | B2
below the threshold | B3

Target: PARD3_3, Q8TEW0
Sequence (Q8TEW0 582-685): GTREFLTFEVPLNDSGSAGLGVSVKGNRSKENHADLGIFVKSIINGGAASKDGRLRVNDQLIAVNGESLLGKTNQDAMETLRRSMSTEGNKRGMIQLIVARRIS
Assay: holdup assay
Set-up: key: below the threshold = too weak to quantify, mostly under pKd 3.1 to 4
Details: plain residues with an end cap or a label only (N-terminal biotin on a linker: ado-ado)

pKd | Binder
below the threshold | B1

Same assay, conditions: plain residues with an end cap or a label only (N-terminal biotin on a linker: ttds)

pKd | Binder
3.89 | B2
3.55 | B3

Target: T6, MPP6, Q9NZW5
Assay: holdup assay
Set-up: key: below the threshold = too weak to quantify, mostly under pKd 3.1 to 4
Details: plain residues with an end cap or a label only (N-terminal biotin on a linker: ado-ado)

pKd | Binder
below the threshold | B1

Same assay, conditions: plain residues with an end cap or a label only (N-terminal biotin on a linker: ttds)

pKd | Binder
below the threshold | B2
below the threshold | B3

Target: DLG2_3, Q15700
Assay: holdup assay
Set-up: key: below the threshold = too weak to quantify, mostly under pKd 3.1 to 4
Details: plain residues with an end cap or a label only (N-terminal biotin on a linker: ado-ado)

pKd | Binder
below the threshold | B1

Same assay, conditions: plain residues with an end cap or a label only (N-terminal biotin on a linker: ttds)

pKd | Binder
below the threshold | B2
below the threshold | B3

Target: IL16_4, Q14005
Sequence (Q14005 1229-1329): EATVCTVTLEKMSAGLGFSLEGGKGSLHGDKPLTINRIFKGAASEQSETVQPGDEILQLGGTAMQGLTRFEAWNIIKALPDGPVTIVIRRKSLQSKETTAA
Assay: holdup assay
Set-up: key: below the threshold = too weak to quantify, mostly under pKd 3.1 to 4
Details: plain residues with an end cap or a label only (N-terminal biotin on a linker: ado-ado)

pKd | Binder
below the threshold | B1

Same assay, conditions: plain residues with an end cap or a label only (N-terminal biotin on a linker: ttds)

pKd | Binder
below the threshold | B2
3.5 | B3

Target: T7, SNTA1, Q13424
Assay: holdup assay
Set-up: key: below the threshold = too weak to quantify, mostly under pKd 3.1 to 4
Details: plain residues with an end cap or a label only (N-terminal biotin on a linker: ado-ado)

pKd | Binder
3.5 | B1

Same assay, conditions: plain residues with an end cap or a label only (N-terminal biotin on a linker: ttds)

pKd | Binder
3.79 | B2
4.04 | B3

Target: LAP2, Q96RT1
Sequence (Q96RT1 other isoform, or with tags, fused parts or gaps): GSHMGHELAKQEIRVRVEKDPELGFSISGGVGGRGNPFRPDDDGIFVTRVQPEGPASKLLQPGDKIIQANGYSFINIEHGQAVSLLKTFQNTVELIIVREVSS
Assay: holdup assay
Set-up: key: below the threshold = too weak to quantify, mostly under pKd 3.1 to 4
Details: plain residues with an end cap or a label only (N-terminal biotin on a linker: ado-ado)

pKd | Binder
below the threshold | B1

Same assay, conditions: plain residues with an end cap or a label only (N-terminal biotin on a linker: ttds)

pKd | Binder
below the threshold | B2
3.82 | B3

Target: GRIP2_6, Q9C0E4
Sequence (Q9C0E4 648-740): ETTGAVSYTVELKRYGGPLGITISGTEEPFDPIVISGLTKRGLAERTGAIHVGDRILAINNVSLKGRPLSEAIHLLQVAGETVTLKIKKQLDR
Assay: holdup assay
Set-up: key: below the threshold = too weak to quantify, mostly under pKd 3.1 to 4
Details: plain residues with an end cap or a label only (N-terminal biotin on a linker: ado-ado)

pKd | Binder
below the threshold | B1

Same assay, conditions: plain residues with an end cap or a label only (N-terminal biotin on a linker: ttds)

pKd | Binder
below the threshold | B2
3.49 | B3

Target: T8, PTPN13_1, Q12923
Assay: holdup assay
Set-up: key: below the threshold = too weak to quantify, mostly under pKd 3.1 to 4
Details: plain residues with an end cap or a label only (N-terminal biotin on a linker: ado-ado)

pKd | Binder
below the threshold | B1

Same assay, conditions: plain residues with an end cap or a label only (N-terminal biotin on a linker: ttds)

pKd | Binder
below the threshold | B2
below the threshold | B3

Target: T9, LRRC7, Q96NW7
Assay: holdup assay
Set-up: key: below the threshold = too weak to quantify, mostly under pKd 3.1 to 4
Details: plain residues with an end cap or a label only (N-terminal biotin on a linker: ado-ado)

pKd | Binder
below the threshold | B1

Same assay, conditions: plain residues with an end cap or a label only (N-terminal biotin on a linker: ttds)

pKd | Binder
below the threshold | B2
below the threshold | B3

Target: FRMPD2_1, Q68DX3
Sequence (Q68DX3 770-861): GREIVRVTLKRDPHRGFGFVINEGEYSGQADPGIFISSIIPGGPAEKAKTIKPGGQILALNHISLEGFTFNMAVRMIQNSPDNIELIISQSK
Assay: holdup assay
Set-up: key: below the threshold = too weak to quantify, mostly under pKd 3.1 to 4
Details: plain residues with an end cap or a label only (N-terminal biotin on a linker: ado-ado)

pKd | Binder
below the threshold | B1

Same assay, conditions: plain residues with an end cap or a label only (N-terminal biotin on a linker: ttds)

pKd | Binder
below the threshold | B2
below the threshold | B3

Target: T10, DLG3_1, Q92796
Assay: holdup assay
Set-up: key: below the threshold = too weak to quantify, mostly under pKd 3.1 to 4
Details: plain residues with an end cap or a label only (N-terminal biotin on a linker: ado-ado)

pKd | Binder
below the threshold | B1

Same assay, conditions: plain residues with an end cap or a label only (N-terminal biotin on a linker: ttds)

pKd | Binder
below the threshold | B2
below the threshold | B3

Target: T11, PDZD2_2, O15018
Assay: holdup assay
Set-up: key: below the threshold = too weak to quantify, mostly under pKd 3.1 to 4
Details: plain residues with an end cap or a label only (N-terminal biotin on a linker: ado-ado)

pKd | Binder
3.62 | B1

Same assay, conditions: plain residues with an end cap or a label only (N-terminal biotin on a linker: ttds)

pKd | Binder
below the threshold | B2
3.71 | B3

Target: T12, SNTB1, Q13884
Assay: holdup assay
Set-up: key: below the threshold = too weak to quantify, mostly under pKd 3.1 to 4
Details: plain residues with an end cap or a label only (N-terminal biotin on a linker: ado-ado)

pKd | Binder
below the threshold | B1

Same assay, conditions: plain residues with an end cap or a label only (N-terminal biotin on a linker: ttds)

pKd | Binder
4.2 | B2
4.08 | B3

Target: FRMPD2_3, Q68DX3
Sequence (Q68DX3 1073-1166): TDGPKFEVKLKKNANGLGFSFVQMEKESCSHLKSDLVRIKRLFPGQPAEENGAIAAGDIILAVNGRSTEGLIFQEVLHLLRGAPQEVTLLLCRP
Assay: holdup assay
Set-up: key: below the threshold = too weak to quantify, mostly under pKd 3.1 to 4
Details: plain residues with an end cap or a label only (N-terminal biotin on a linker: ado-ado)

pKd | Binder
below the threshold | B1

Same assay, conditions: plain residues with an end cap or a label only (N-terminal biotin on a linker: ttds)

pKd | Binder
below the threshold | B2
below the threshold | B3

Target: T13, MPP7, Q5T2T1
Assay: holdup assay
Set-up: key: below the threshold = too weak to quantify, mostly under pKd 3.1 to 4
Details: plain residues with an end cap or a label only (N-terminal biotin on a linker: ado-ado)

pKd | Binder
below the threshold | B1

Same assay, conditions: plain residues with an end cap or a label only (N-terminal biotin on a linker: ttds)

pKd | Binder
below the threshold | B2
below the threshold | B3
